T1: Pin3, Q06449
T1 sequence (Q06449 53-122, looked up): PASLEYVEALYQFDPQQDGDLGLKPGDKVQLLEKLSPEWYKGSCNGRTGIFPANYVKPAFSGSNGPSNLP

T2: Lsb1, P53281
T2 sequence (P53281 45-122, looked up): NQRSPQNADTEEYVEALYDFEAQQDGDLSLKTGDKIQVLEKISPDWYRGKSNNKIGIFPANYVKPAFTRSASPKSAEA

T3: Bzz1-2, P38822
T3 sequence (P38822 568-633, looked up): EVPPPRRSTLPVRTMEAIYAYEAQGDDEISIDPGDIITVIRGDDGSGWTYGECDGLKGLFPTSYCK

T4: Fus1, P11710
T4 sequence (P11710 432-512, looked up): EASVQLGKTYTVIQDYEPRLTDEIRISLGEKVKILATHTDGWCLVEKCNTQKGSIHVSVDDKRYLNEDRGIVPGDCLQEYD

T5: Hof1, Q05080
T5 sequence (Q05080 590-669, looked up): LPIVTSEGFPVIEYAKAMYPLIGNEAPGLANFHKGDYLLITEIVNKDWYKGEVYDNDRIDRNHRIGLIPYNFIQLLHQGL

T6: Boi1, P38041
T6 sequence (P38041 1-86, looked up): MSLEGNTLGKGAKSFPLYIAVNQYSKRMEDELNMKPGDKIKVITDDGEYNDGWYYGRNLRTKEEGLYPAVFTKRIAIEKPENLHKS

T7: Bbc1, P47068
T7 sequence (P47068 1-78, looked up): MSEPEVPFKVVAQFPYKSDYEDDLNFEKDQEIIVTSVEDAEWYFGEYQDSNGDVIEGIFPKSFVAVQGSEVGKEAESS

T8: Lsb4, P32793
T8 sequence (P32793 402-468, looked up): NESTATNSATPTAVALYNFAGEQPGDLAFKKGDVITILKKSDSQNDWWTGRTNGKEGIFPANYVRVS

T9: Sla1-2, P32790
T9 sequence (P32790 60-140, looked up): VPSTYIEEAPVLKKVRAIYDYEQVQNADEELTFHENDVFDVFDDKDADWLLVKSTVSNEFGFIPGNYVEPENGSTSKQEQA

T10: Pex13, P80667
T10 sequence (P80667 295-386, looked up): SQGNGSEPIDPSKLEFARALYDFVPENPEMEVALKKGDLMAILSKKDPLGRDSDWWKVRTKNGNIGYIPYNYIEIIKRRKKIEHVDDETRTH

T11: Nbp2, Q12163
T11 sequence (Q12163 103-180, looked up): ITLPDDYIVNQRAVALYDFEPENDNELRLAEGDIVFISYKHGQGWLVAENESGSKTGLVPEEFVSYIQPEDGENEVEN

T12: Lsb3, P43603
T12 sequence (P43603 385-451, looked up): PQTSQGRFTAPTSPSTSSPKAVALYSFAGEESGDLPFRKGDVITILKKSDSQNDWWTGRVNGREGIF

T13: Boi2, P39969
T13 sequence (P39969 32-116, looked up): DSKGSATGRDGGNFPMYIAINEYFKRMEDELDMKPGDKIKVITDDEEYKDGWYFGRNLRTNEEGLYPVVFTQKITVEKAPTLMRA

T14: Cdc25, P04821
T14 sequence (P04821 50-136, looked up): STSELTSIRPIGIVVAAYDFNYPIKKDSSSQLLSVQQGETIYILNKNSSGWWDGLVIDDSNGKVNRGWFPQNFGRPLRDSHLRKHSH

T15: Hse1, P38753
T15 sequence (P38753 208-285, looked up): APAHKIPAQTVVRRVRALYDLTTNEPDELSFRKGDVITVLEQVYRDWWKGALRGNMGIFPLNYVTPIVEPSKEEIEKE

T16: Cyk3, Q07533
T16 sequence (Q07533 1-83, looked up): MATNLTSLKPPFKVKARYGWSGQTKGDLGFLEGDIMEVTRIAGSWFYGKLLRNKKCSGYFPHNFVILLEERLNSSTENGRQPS

T17: Myo5, Q04439
T17 sequence (Q04439 1072-1160, looked up): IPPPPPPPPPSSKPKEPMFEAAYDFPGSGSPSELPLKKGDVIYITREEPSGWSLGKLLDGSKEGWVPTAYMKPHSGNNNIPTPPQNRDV

T18: Bzz1-1, P38822
T18 sequence (P38822 478-572, looked up): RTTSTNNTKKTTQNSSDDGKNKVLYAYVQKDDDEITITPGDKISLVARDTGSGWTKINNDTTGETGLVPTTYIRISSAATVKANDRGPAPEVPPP

T19: Abp1, P15891
T19 sequence (P15891 535-592, looked up): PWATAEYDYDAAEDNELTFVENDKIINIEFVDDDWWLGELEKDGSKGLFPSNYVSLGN

T20: Sla1-3, P32790
T20 sequence (P32790 344-424, looked up): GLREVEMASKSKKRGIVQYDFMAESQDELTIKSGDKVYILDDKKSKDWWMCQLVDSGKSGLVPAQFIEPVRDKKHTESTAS

T21: Bud14, P27637
T21 sequence (P27637 247-328, looked up): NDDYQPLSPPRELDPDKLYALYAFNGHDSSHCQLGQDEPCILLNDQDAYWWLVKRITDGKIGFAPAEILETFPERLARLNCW


target: T1, Pin3, Q06449; assay: SPOT array; settings: median of control spots 2171

Row | SPOT intensity | Binder
1 | 69 | KMSRSPPRPPSLKII
2 | 6 | NLPKRKPPKLQGPFS
3 | 30 | DRIRMFIRFPKFLLE

target: T2, Lsb1, P53281; assay: SPOT array; settings: median of control spots 388

Row | SPOT intensity | Binder
4 | 140 | KMSRSPPRPPSLKII
5 | 0 | NLPKRKPPKLQGPFS
6 | 4 | DRIRMFIRFPKFLLE

target: GST; assay: SPOT array; settings: median of control spots 978

Row | SPOT intensity | Binder
7 | 1 | KMSRSPPRPPSLKII
8 | 1 | NLPKRKPPKLQGPFS
9 | 0 | DRIRMFIRFPKFLLE

target: T3, Bzz1-2, P38822; assay: SPOT array; settings: median of control spots 4538

Row | SPOT intensity | Binder
10 | 350 | KMSRSPPRPPSLKII
11 | 49 | NLPKRKPPKLQGPFS
12 | 0 | DRIRMFIRFPKFLLE

target: T4, Fus1, P11710; assay: SPOT array; settings: median of control spots 1200

Row | SPOT intensity | Binder
13 | 0 | KMSRSPPRPPSLKII
14 | 6 | NLPKRKPPKLQGPFS
15 | 39 | DRIRMFIRFPKFLLE

target: T5, Hof1, Q05080; assay: SPOT array; settings: median of control spots 4086

Row | SPOT intensity | Binder
16 | 0 | KMSRSPPRPPSLKII
17 | 24 | NLPKRKPPKLQGPFS
18 | 21 | DRIRMFIRFPKFLLE

target: T6, Boi1, P38041; assay: SPOT array; settings: median of control spots 1162

Row | SPOT intensity | Binder
19 | 0 | KMSRSPPRPPSLKII
20 | 2 | NLPKRKPPKLQGPFS
21 | 7 | DRIRMFIRFPKFLLE

target: T7, Bbc1, P47068; assay: SPOT array; settings: median of control spots 796

Row | SPOT intensity | Binder
22 | 98 | KMSRSPPRPPSLKII
23 | 31 | NLPKRKPPKLQGPFS
24 | 43 | DRIRMFIRFPKFLLE

target: T8, Lsb4, P32793; assay: SPOT array; settings: median of control spots 397

Row | SPOT intensity | Binder
25 | 88 | KMSRSPPRPPSLKII
26 | 20 | NLPKRKPPKLQGPFS
27 | 7 | DRIRMFIRFPKFLLE

target: Bem1-2, P29366; assay: SPOT array; settings: median of control spots 4347
Sequence (P29366 139-227): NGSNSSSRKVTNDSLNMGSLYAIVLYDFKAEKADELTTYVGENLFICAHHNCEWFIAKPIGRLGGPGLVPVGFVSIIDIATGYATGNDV

Row | SPOT intensity | Binder
28 | 567 | KMSRSPPRPPSLKII
29 | 81 | NLPKRKPPKLQGPFS
30 | 20 | DRIRMFIRFPKFLLE

target: T9, Sla1-2, P32790; assay: SPOT array; settings: median of control spots 712

Row | SPOT intensity | Binder
31 | 8 | KMSRSPPRPPSLKII
32 | 1 | NLPKRKPPKLQGPFS
33 | 0 | DRIRMFIRFPKFLLE

target: T10, Pex13, P80667; assay: SPOT array; settings: median of control spots 1341

Row | SPOT intensity | Binder
34 | 124 | KMSRSPPRPPSLKII
35 | 11 | NLPKRKPPKLQGPFS
36 | 38 | DRIRMFIRFPKFLLE

target: Sho1, P40073; assay: SPOT array; settings: median of control spots 1148
Sequence (P40073 287-367): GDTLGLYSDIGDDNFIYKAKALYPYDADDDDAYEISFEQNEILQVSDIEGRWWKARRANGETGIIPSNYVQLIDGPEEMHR

Row | SPOT intensity | Binder
37 | 55 | KMSRSPPRPPSLKII
38 | 121 | NLPKRKPPKLQGPFS
39 | 71 | DRIRMFIRFPKFLLE

target: T11, Nbp2, Q12163; assay: SPOT array; settings: median of control spots 357

Row | SPOT intensity | Binder
40 | 513 | KMSRSPPRPPSLKII
41 | 56 | NLPKRKPPKLQGPFS
42 | 52 | DRIRMFIRFPKFLLE

target: T12, Lsb3, P43603; assay: SPOT array; settings: median of control spots 406

Row | SPOT intensity | Binder
43 | 54 | KMSRSPPRPPSLKII
44 | 4 | NLPKRKPPKLQGPFS
45 | 6 | DRIRMFIRFPKFLLE

target: Rvs167, P39743; assay: SPOT array; settings: median of control spots 2707
Sequence (P39743 419-482): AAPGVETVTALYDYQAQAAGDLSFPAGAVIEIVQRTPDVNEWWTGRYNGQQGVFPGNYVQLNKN

Row | SPOT intensity | Binder
46 | 67 | KMSRSPPRPPSLKII
47 | 0 | NLPKRKPPKLQGPFS
48 | 0 | DRIRMFIRFPKFLLE

target: T13, Boi2, P39969; assay: SPOT array; settings: median of control spots 1161

Row | SPOT intensity | Binder
49 | 0 | KMSRSPPRPPSLKII
50 | 1 | NLPKRKPPKLQGPFS
51 | 3 | DRIRMFIRFPKFLLE

target: Bem1-1, P29366; assay: SPOT array; settings: median of control spots 4282
Sequence (P29366 55-141): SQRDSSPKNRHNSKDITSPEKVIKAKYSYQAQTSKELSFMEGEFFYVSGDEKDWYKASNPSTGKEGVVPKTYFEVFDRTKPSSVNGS

Row | SPOT intensity | Binder
52 | 0 | KMSRSPPRPPSLKII
53 | 0 | NLPKRKPPKLQGPFS
54 | 0 | DRIRMFIRFPKFLLE

target: T14, Cdc25, P04821; assay: SPOT array; settings: median of control spots 969

Row | SPOT intensity | Binder
55 | 9 | KMSRSPPRPPSLKII
56 | 53 | NLPKRKPPKLQGPFS
57 | 77 | DRIRMFIRFPKFLLE

target: T15, Hse1, P38753; assay: SPOT array; settings: median of control spots 1727

Row | SPOT intensity | Binder
58 | 14 | KMSRSPPRPPSLKII
59 | 440 | NLPKRKPPKLQGPFS
60 | 17 | DRIRMFIRFPKFLLE

target: T16, Cyk3, Q07533; assay: SPOT array; settings: median of control spots 1451

Row | SPOT intensity | Binder
61 | 0 | KMSRSPPRPPSLKII
62 | 1 | NLPKRKPPKLQGPFS
63 | 2 | DRIRMFIRFPKFLLE

target: T17, Myo5, Q04439; assay: SPOT array; settings: median of control spots 471

Row | SPOT intensity | Binder
64 | 64 | KMSRSPPRPPSLKII
65 | 3 | NLPKRKPPKLQGPFS
66 | 2 | DRIRMFIRFPKFLLE

target: Myo3, P36006; assay: SPOT array; settings: median of control spots 468

Row | SPOT intensity | Binder
67 | 81 | KMSRSPPRPPSLKII
68 | 42 | NLPKRKPPKLQGPFS
69 | 18 | DRIRMFIRFPKFLLE

target: T18, Bzz1-1, P38822; assay: SPOT array; settings: median of control spots 4446

Row | SPOT intensity | Binder
70 | 2 | KMSRSPPRPPSLKII
71 | 9 | NLPKRKPPKLQGPFS
72 | 0 | DRIRMFIRFPKFLLE

target: T19, Abp1, P15891; assay: SPOT array; settings: median of control spots 935

Row | SPOT intensity | Binder
73 | 326 | KMSRSPPRPPSLKII
74 | 202 | NLPKRKPPKLQGPFS
75 | 108 | DRIRMFIRFPKFLLE

target: T20, Sla1-3, P32790; assay: SPOT array; settings: median of control spots 5475

Row | SPOT intensity | Binder
76 | 88 | KMSRSPPRPPSLKII
77 | 213 | NLPKRKPPKLQGPFS
78 | 24 | DRIRMFIRFPKFLLE

target: T21, Bud14, P27637; assay: SPOT array; settings: median of control spots 956

Row | SPOT intensity | Binder
79 | 5 | KMSRSPPRPPSLKII
80 | 12 | NLPKRKPPKLQGPFS
81 | 8 | DRIRMFIRFPKFLLE
